Tested on: MS2 coat protein
Assay: apparent KD of MS2 coat protein; designed switch direction (-1 OFF switch, 1 ON switch): -1; higher = weaker reporter binding
In short: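 SNAP-549-labelled MS2 coat protein was titrated, doubling from 0.7 or 1.5 nM to 3 µM, over designed RNA switches transcribed on Illumina chips by stalled E. coli RNA polymerase. Runs were done without input, with 200 uM small-molecule ligand, or with an oligonucleotide input. Apparent KD is the per-design median over clusters of curve-fitted normalised fluorescence.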

[1] = input ligand: microRNA oligo, concentration not stated
[2] = Eterna round: R95, input ligand: microRNA oligo, concentration not stated
[3] = Eterna round: R95, input ligand: FMN 200 uM
[4] = Eterna round: R95, input ligand: none

Sequence: CGUGCGUAUGUGAGGAUAUGCUGGUCCUUGGAUCGGCAGAAGGCACAUGAGGAUCACCCAUGUGGUGUCGUUCC [salish99_Bmod_ex4_094] (Eterna round: R96, puzzle: Brourd's mod of Exclusion 4)
- apparent KD of MS2 coat protein (input ligand: FMN 200 uM): 328 nM
- apparent KD of MS2 coat protein [1]: 30.8 nM
- apparent KD of MS2 coat protein (input ligand: none): 39.1 nM

Sequence: CCUCGUGCACGAGGAUAUUGGAAAGGAAGUGUACGAGAAGGCGUGCCGAGGGAACAUGAGGAUCACCCAUGUGGCCUCAUCACA [PowerStrip EXNG 1.13] (Eterna round: R96, puzzle: Exclusion NG 1)
- apparent KD of MS2 coat protein (input ligand: FMN 200 uM): 120 nM
- apparent KD of MS2 coat protein [1]: 97.5 nM
- apparent KD of MS2 coat protein (input ligand: none): 152 nM

Sequence: ACGUGACAUGAGGAUCACCCAUGUGAGGAUAUCUGGAUAAUUUUUAUUUUAGAUAUCCAGAGAAGGCACAUGUU [Ex1-3: 1Z] (puzzle: Exclusion 1)
- apparent KD of MS2 coat protein [2]: 188 nM

Sequence: CAUUAUUAUCGAGGAUAUCGUAUUGAGAUACUAUGAGAAGGCGGGAUAAACAUGAGGAUCACCCAUGUGAGCCGGAUGCUUGUG [Ex NG1 #36] (Eterna round: R96, puzzle: Exclusion NG 1)
- apparent KD of MS2 coat protein [1]: 13.5 nM

Sequence: CAUUUGUGAGGAUAUCAGGUGUGCUAGCGUACUGGUACAUCUGAGAAGGCACAUGAGGAUCACCCAUGUUCCUC [Mat - Exclusion 4 - Mod of JL - D35] (puzzle: Exclusion 4)
- apparent KD of MS2 coat protein [2]: 44.1 nM

Sequence: ACCAUGUCUGAGGAUAUGCAAGCGUACCACGCGGUAGAAGGCAGCACAUGAGGAUCACCCAUGUGGGUAUGCUA [Inanenqu] (puzzle: Exclusion 6)
- apparent KD of MS2 coat protein [3]: 15.3 nM
- apparent KD of MS2 coat protein [2]: 9.92 nM
- apparent KD of MS2 coat protein [4]: 14.8 nM

Sequence: AGCUGUGGCCGAGGAUAUGACAUGAGGAUCACCCAUGUACAUAAUUAGGCCUGGUAACAGGCUCGUCAGAAGGCGGUCUCAGCA [Eli eng2 - 007] (Eterna round: R96, puzzle: Exclusion NG 2)
- apparent KD of MS2 coat protein (input ligand: FMN 200 uM): 12.3 nM
- apparent KD of MS2 coat protein [1]: 8.31 nM
- apparent KD of MS2 coat protein (input ligand: none): 12.6 nM

Sequence: GAUAAGGUAGGAUAUACGAAUAAAAAGGGUAGAAGAAGAACACAUGAGGAUCACCCAUGUAGAAGGACCAAUAG [Mat - Exclusion 2 - Mod of my Tesla design - D24] (puzzle: Exclusion 2)
- apparent KD of MS2 coat protein [3]: 37.9 nM
- apparent KD of MS2 coat protein [2]: 19.7 nM
- apparent KD of MS2 coat protein [4]: 16.5 nM

Sequence: GGUGCGUAUGUGAGGAUAUGCUGGUCCUUGGCUCGGCAGAAGGCACAUGAGGAUCACCCAUGUGGUGUCGUACG [salish99_Bmod_ex4_063] (puzzle: Brourd's mod of Exclusion 4)
- apparent KD of MS2 coat protein [3]: 249 nM
- apparent KD of MS2 coat protein [2]: 36.5 nM
- apparent KD of MS2 coat protein [4]: 54.4 nM

Sequence: GAUUAUGCGAGCUUUAGGGACAUGAGGAUCACCCAUGUUCGUCUUAUUAGUCUGGGUACACUGACAUACCUAAAUCU [JMF 71] (puzzle: Sensor v3, turn-off variant 1)
- apparent KD of MS2 coat protein [3]: 24.6 nM
- apparent KD of MS2 coat protein [2]: 35.2 nM
- apparent KD of MS2 coat protein [4]: 25.4 nM

Sequence: UCUCGCGGGCAAGGAUAUCCUACAUUGUUCUGGCCCGGGCAUGUUACAUGAGGAUCACCCAUGUGGGAGAAGGUGCGCCAGGGC [Design 35] (Eterna round: R96, puzzle: Exclusion NG 2)
- apparent KD of MS2 coat protein (input ligand: FMN 200 uM): 29.9 nM
- apparent KD of MS2 coat protein [1]: 18.9 nM
- apparent KD of MS2 coat protein (input ligand: none): 30.3 nM

Sequence: UAUUAGCAAGUGAGAUCCCACAUGAGGAUCACCCAUGUGCUCGUCUUAUAAGGUACUGUGACGAGAGUCACGGUACC [Mat - Sensor, turn-off var - Eli Mod - D2] (Eterna round: R97, puzzle: Sensor, turn-off variant 1)
- apparent KD of MS2 coat protein (input ligand: FMN 200 uM): 46.1 nM
- apparent KD of MS2 coat protein (input ligand: none): 44.7 nM

Sequence: AGCAGACGAGGAUAUAAAUUUAAAUACAUGAGGAUCACCCAUGUAUAAAUGUAUUUAAAUUUAGAAGGCGUCUGCU [E5/12-A1] (Eterna round: R97, puzzle: Exclusion 5)
- apparent KD of MS2 coat protein (input ligand: FMN 200 uM): 793 nM
- apparent KD of MS2 coat protein (input ligand: none): 710 nM

Sequence: AGCGAGACAGGAUAUACUUGAGGAUCACCCAAGUCACAAAGGGUCUCACUCUUCACUAGUAGAAGGGUCGUGUA [Lereer] (Eterna round: R97, puzzle: Exclusion 3)
- apparent KD of MS2 coat protein (input ligand: FMN 200 uM): 24.1 nM
- apparent KD of MS2 coat protein (input ligand: none): 18.7 nM

Sequence: CUCAUGUGAGGAUAUCACAUAGCGUCACGGCUGUAACAUUUUGAGAAGGCACAUGAGGAUCACCCAUGUGACAC [Eternabot (L2) Solution 79] (Eterna round: R97, puzzle: Exclusion 4)
- apparent KD of MS2 coat protein (input ligand: FMN 200 uM): 104 nM
- apparent KD of MS2 coat protein (input ligand: none): 46.6 nM

Sequence: CUGAGCAGACGGAGAUCCAACAUGAGGAUCACCCAUGUCUCAAAAGCUUUUUGCUCAUCUUAUCGUACCUUGGUGCU [JL ViennaUCT Edcesobi mod 1] (puzzle: Sensor v3, turn-off variant 1)
- apparent KD of MS2 coat protein [3]: 406 nM
- apparent KD of MS2 coat protein [2]: 20.2 nM
- apparent KD of MS2 coat protein [4]: 445 nM

Sequence: AACCCUAGGGUCAGACGCACAAGCUUUUUGCUCGUUUUAACAUGAGGAUCACCCAUGUCUAGUGGAUCUGAUCGGGC [Isreen] (puzzle: Sensor v3, turn-off variant 2)
- apparent KD of MS2 coat protein [3]: 24.7 nM
- apparent KD of MS2 coat protein [2]: 137 nM
- apparent KD of MS2 coat protein [4]: 26.2 nM

Sequence: AAUAACAGAGGAUAUACUAUUUUAUGUGUUUGUUAUUUUAAACAUGAGGAUCACCCAUGUAGAAGGCUGAAUAA [JMF 14] (puzzle: Exclusion 2)
- apparent KD of MS2 coat protein [2]: 19.1 nM

Sequence: UUUAUAUAGUAAGGAUAUGUAUUAUUUUUUUCAACAGAAGGUACUGACAUGAGGAUCACCCAUGUUUUAGUGUGGGCAUGUAGU [JMF's solution 98] (Eterna round: R96, puzzle: Exclusion NG 1)
- apparent KD of MS2 coat protein [1]: 323 nM

Sequence: UUUAAUUUAAUUAAGAUCACAUGAGGAUCACCCAUGUAUAUAUAGGAUAUCAGCUCGUUUAGAGCUGAGAAGGAUAUAUACAUA [ExNG3/4-A2] (Eterna round: R96, puzzle: Exclusion NG 3)
- apparent KD of MS2 coat protein (input ligand: FMN 200 uM): 433 nM
- apparent KD of MS2 coat protein [1]: 40.1 nM
- apparent KD of MS2 coat protein (input ligand: none): 58.2 nM

Sequence: UUUUAACAUGAGGAUCACCCAUGUGAGGAUAUCGAAAUUUAUAUUAAUAUUUUUAUUUCGAGAAGGCACAUUUU [JMF 73] (puzzle: Exclusion 1)
- apparent KD of MS2 coat protein [2]: 138 nM

Sequence: UAUCUAUGAGGAUAUCAUAGUAGUUACAUGAGGAUCACCCAUGUCAUGACAGAACUGGGAUGAGAAGGCAUUCGUU [Eternabot (L2) Solution 73] (Eterna round: R97, puzzle: Exclusion 5)
- apparent KD of MS2 coat protein (input ligand: FMN 200 uM): 291 nM
- apparent KD of MS2 coat protein (input ligand: none): 447 nM

Sequence: AUAGGAGUAGGAUAUUCAGUUCGACACAUGAGGAUCACCCAUGUCGCUGUGGCCGGGCACGGAGAAGGAUUGUUGU [Eternabot (L1) Solution 15] (Eterna round: R97, puzzle: Exclusion 5)
- apparent KD of MS2 coat protein (input ligand: FMN 200 uM): 39.1 nM
- apparent KD of MS2 coat protein (input ligand: none): 36.3 nM

Sequence: AACCAGAUGAAACACAGGCACAUGAGGAUCACCCAUGUCUUAGAGCAUUCGGGUAAUCGGCUCGUUUUAAUUAGAAC [Eternabot (L1) Solution 22] (Eterna round: R97, puzzle: Sensor, turn-off variant 1)
- apparent KD of MS2 coat protein (input ligand: FMN 200 uM): 279 nM
- apparent KD of MS2 coat protein (input ligand: none): 344 nM

Sequence: UCUGGUCGAGGAUAUACAUGAGGAUCACCCAUGUUGAUCAACUGCCGAUAGGCAGAAUGUAGAAGGCGACCAGA [E3/7-A3] (Eterna round: R97, puzzle: Exclusion 3)
- apparent KD of MS2 coat protein (input ligand: FMN 200 uM): 176 nM
- apparent KD of MS2 coat protein (input ligand: none): 865 nM

Sequence: AAUCCACAUGAGGAUCACCCAUGUGAGGAUAUGAUACUAUGUACUUCGGUACAUAGUAUCAGAAGGCACAGGUC [Ex1-3: 58] (puzzle: Exclusion 1)
- apparent KD of MS2 coat protein [2]: 25 nM

Sequence: AUGAAAGUAGGAUAUCGACUGAUUGACAUGAGGAUCACCCAUGUGGUUCUGUGCGGUGUUCGAGAAGGGCUAAGAU [Mageer] (puzzle: Exclusion 5)
- apparent KD of MS2 coat protein [3]: 23.1 nM
- apparent KD of MS2 coat protein [2]: 15.7 nM
- apparent KD of MS2 coat protein [4]: 20.9 nM

Sequence: AAACGGCAGGGAGGAUAUGCUUGCCUGGGUCGUCUUCAGACAUGAGGAUCACCCAUGUAGUCGACGCAGAAGGCCCUCAAAGCC [JL ViennaUCT Ontiis mod 5] (Eterna round: R96, puzzle: Exclusion NG 2)
- apparent KD of MS2 coat protein (input ligand: FMN 200 uM): 158 nM
- apparent KD of MS2 coat protein [1]: 16.2 nM
- apparent KD of MS2 coat protein (input ligand: none): 18.1 nM

Sequence: AAGCUGUGAGGAUAUACAUGAGGAUCACCCAUGUUAAGGAAGUCGGGAUUAAUUUGGUGUAGAAGGCGCUUAUU [JR_Ex3_Sub019] (Eterna round: R97, puzzle: Exclusion 3)
- apparent KD of MS2 coat protein (input ligand: FMN 200 uM): 46.1 nM
- apparent KD of MS2 coat protein (input ligand: none): 48.6 nM

Sequence: UUAAUGUGAGGAUAUCAGGUGUGCUAGCGUACUGGUACAUCUGAGAAGGCACAUGAGGAUCACCCAUGUUCCUG [JL-ex4-3.28 Brourd mod] (puzzle: Exclusion 4)
- apparent KD of MS2 coat protein [2]: 20.6 nM

Sequence: ACUUCACAUGAGGAUCACCCAUGUGAGGAUAUCGUCGAGGAUGUAAUGCCAUCCGUGACGAGAAGGCGCAUGGU [Exclusion 1 (Mod 2.1 solution 40 by Eternabot)] (Eterna round: R97, puzzle: Exclusion 1)
- apparent KD of MS2 coat protein (input ligand: FMN 200 uM): 147 nM
- apparent KD of MS2 coat protein (input ligand: none): 31.1 nM

Sequence: UUCUAACGAGGAUAUCGAUGGUGGAACAUGAGGAUCACCCAUGUAUGAGAUAUUGUAGUUCGAGAAGGCGUUCAGU [JR_E5_Sub057] (puzzle: Exclusion 5)
- apparent KD of MS2 coat protein [2]: 36.6 nM

Sequence: CCCAGUUAGGAAGGAUAUUGUACAUGAGGAUCACCCAUGUAAUAAAUGAGGAUCACGGAUGUAGACAAGAAGGUCCGGAUAGGC [Ostracism 8 - Jieux - Exclusion NG 2] (Eterna round: R96, puzzle: Exclusion NG 2)
- apparent KD of MS2 coat protein (input ligand: FMN 200 uM): 104 nM
- apparent KD of MS2 coat protein [1]: 41.5 nM
- apparent KD of MS2 coat protein (input ligand: none): 55.5 nM

Sequence: AUAAUGUAAGGAUAUCAGUCGACUAGCUGCGGCUAGUCGACUGAGAAGGUACAUGAGGAUCACCCAUGUGAUUA [E4/10-A3] (Eterna round: R97, puzzle: Exclusion 4)
- apparent KD of MS2 coat protein (input ligand: FMN 200 uM): 889 nM
- apparent KD of MS2 coat protein (input ligand: none): 138 nM

Sequence: GCUGGUCGAGGAUAUACAAUCGUGCUUCGGCACGUAAGAUCACAUGAGGAUCACCCAUGUAGAAGGUGACCAGC [E2/1-B3] (Eterna round: R97, puzzle: Exclusion 2)
- apparent KD of MS2 coat protein (input ligand: FMN 200 uM): 118 nM
- apparent KD of MS2 coat protein (input ligand: none): 25.1 nM
